{"source": "paper PMC8693972", "about": "(Molecular Biology of the Cell, 2021)", "binders": {"B1": {"name": "fluorescent Qb-SNARE domain (cysteine-tagged synthetic SNARE domain of the Qb-SNARE Vti1) (domain or fragment)", "chain": "HAILQKSGDRLKDASRIANETEGIGSQIMMDLRSQRETLENARQTLFQADSYVDKSIKTLKTM", "modifications": "also: cysteine tag with fluorophore (Alexa-568), tag not in given chain"}}, "target": "T1, fluorescently labeled Qc-SNARE Vam7 (yeast, UniProt P32912 1-316, labeled with a fluorophore distinct from that of Qb)", "T1 sequence": "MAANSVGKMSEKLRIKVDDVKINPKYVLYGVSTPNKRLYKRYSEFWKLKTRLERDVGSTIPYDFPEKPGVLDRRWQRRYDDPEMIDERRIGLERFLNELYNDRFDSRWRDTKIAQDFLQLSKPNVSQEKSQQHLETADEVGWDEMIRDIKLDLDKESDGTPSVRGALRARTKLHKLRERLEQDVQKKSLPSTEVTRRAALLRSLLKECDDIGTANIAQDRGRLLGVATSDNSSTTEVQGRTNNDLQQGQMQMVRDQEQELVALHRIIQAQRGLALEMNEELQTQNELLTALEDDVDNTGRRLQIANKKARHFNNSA", "test": "FRET or BRET", "data": [{"binder": "B1", "values": [{"measurement": "fold faster FRET with sQa than without sQa", "result": 100, "unit": "fold"}]}]}
